Results on eight molecules are retold here after patent publication US9944717 (BROTEIO PHARMA B V, dated 2018).

For assay [1], the target named is T1, glycosylated recombinant human complement C2 with a N-terminal his-tag (human, UniProt P06681 21-752, N-linked glycans).
T1 construct: also called recombinant human C2; wild-type recombinant C2; not shown: N-terminal his-tag
T1 sequence: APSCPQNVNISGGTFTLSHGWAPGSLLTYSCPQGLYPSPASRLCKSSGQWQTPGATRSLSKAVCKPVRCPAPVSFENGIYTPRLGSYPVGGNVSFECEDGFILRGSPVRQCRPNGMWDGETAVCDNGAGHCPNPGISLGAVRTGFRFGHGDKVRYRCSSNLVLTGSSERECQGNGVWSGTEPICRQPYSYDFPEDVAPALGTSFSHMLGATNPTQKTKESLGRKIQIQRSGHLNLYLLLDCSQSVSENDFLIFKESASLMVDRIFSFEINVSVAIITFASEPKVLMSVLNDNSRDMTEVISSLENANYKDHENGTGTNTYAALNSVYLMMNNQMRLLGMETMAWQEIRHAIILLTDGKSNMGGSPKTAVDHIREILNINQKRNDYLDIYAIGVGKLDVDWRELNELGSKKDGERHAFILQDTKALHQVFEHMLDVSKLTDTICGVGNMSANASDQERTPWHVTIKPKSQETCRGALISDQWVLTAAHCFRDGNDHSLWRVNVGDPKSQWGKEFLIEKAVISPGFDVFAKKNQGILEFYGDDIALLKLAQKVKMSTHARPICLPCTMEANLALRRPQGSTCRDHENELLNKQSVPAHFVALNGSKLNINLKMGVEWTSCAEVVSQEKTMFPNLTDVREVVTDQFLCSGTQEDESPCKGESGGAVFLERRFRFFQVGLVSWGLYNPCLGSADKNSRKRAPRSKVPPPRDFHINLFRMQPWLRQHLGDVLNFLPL
Kind of assay: ELISA, recombinant human C2 immobilized at 2 µg/ml. On the procedure: (§1) Chimeric mouse-human antibodies (human IgG1κ version for anti-C2-32, and human IgG4κ version for anti-C2-5F2.4, -13, -32, -35 and -60) were expressed using FreeStyle™ MAX CHO (CHO-S cells) Expression System (Invitrogen). Expressed chimeric mouse-human anti-human complement C2 antibodies were purified using affinity chromatography protein A columns (GE Healthcare). Using the same ELISA procedure as described in Example 3, all anti-C2 chimeric mAbs were tested for binding to high (200 ng per well) and low (25 ng per well) recombinant C2. Briefly, ELISA plates (Corning) were coated with the indicated amount of C2 in PBS overnight at 4° C. After extensive washing in PBS/0.05% Tween 20, plates were blocked with PBS/0.05% Tween 20/1% BSA fraction V (Roche) for 1 hour at RT. Subsequently, plates were incubated with 0, 0.00002-20.0 (10-fold dilution steps in block buffer) μg/mL protein A-purified chimeric mouse-human IgG1κ and/or IgG4κ anti-C2-5F2.4, -13, -32, -35 and -60 for 1 hour at RT. After extensive washing in PBS/0.05% Tween 20, binding of antibodies was determined with 1:5000 diluted horseradish peroxidase-conjugated goat anti-human IgG-specific (heavy and light chains) antibodies (Jackson ImmunoResearch) for 1 hour at RT, followed by a ready-to-use solution of TMB substrate (Invitrogen) for colorimetric detection. After adding 1 M H_2SO_4, optical densities were measured at a wavelength of 450 nm (reference wavelength of 655 nm) using a microplate reader (BioRad).
Binding of humanized anti-C2-5F2.4 mAbs versions VL3VH3, VL4VH3, VL3VH4, and VL4VH4 to C2 was assessed by ELISA like described above in Example 12 (recombinant human C2 was immobilized to plates at 2 µg/ml).

In assay [2] the target is T1, glycosylated recombinant human …. Kind of assay: ELISA, C2 coated at 200 ng per well.
Assay [3] concerns the target T2, glycosylated recombinant human subcomponent C2a (≈70 kDa) (human, UniProt P06681 244-752, N-linked glycans).
T2 construct: Larger fragment of C1s-cleaved recombinant C2; Start 244 follows from the printed cleavage site; also called purified C2a; recombinant human C2a
T2 sequence: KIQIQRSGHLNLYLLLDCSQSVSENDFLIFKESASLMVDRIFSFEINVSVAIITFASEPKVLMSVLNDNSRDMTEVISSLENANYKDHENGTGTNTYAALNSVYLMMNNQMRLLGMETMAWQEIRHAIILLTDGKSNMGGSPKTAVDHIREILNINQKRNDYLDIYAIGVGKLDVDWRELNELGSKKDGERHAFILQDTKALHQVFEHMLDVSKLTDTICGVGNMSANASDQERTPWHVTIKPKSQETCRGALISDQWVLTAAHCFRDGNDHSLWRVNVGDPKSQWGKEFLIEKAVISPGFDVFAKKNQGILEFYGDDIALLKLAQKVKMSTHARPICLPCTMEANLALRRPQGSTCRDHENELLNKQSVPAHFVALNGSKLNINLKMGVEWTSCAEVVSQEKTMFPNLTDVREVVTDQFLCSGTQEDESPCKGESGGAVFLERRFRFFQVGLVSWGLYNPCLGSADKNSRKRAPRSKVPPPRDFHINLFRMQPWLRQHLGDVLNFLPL
Kind of assay: Western blot of C1s-cleaved C2, non-reducing, mAb at 200 ng/mL. On the procedure: (a). Mapping of Epitopes for mAbs Anti-C2-13, -32, -35, -60 and -5F2.4 on Glycosylated Recombinant Human Subcomponents C2a and C2b with Western Blotting Glycosylated recombinant human C2 (range 125-500 ng/lane, see FIG. 9; U-protein Express) or C1s-cleaved glycosylated recombinant human C2 (range 62.5-1000 ng/lane, see FIG. 9; for C2 cleavage procedure, see Example 1(b)) were electrophorized using 4-12% Tris-Bis gels and MOPS running buffer (Invitrogen) under non-reducing conditions in pre-cast SDS-PAGE (NuPage® Novex® system). Then, the C2 proteins were electro-blotted onto a polyvinylidene fluoride (PDVF) transfer membrane (Millipore). After blocking with PBS/0.05% Tween 20/1% BSA fraction V (Roche) for 20 min at RT, PDVF membranes were incubated with anti-C2 mAbs anti-C2-C2-5F2.4 (100 ng/mL), anti-C2-13 (200 ng/mL), anti-C2-32 (200 ng/mL), anti-C2-35 (100 ng/mL) and anti-C2-60 (200 ng/mL) for 1 hour at RT. After extensive washing in PBS/0.05% Tween 20, binding of anti-C2 mAbs was determined with 1:10,000 diluted horseradish peroxidase-conjugated goat anti-mouse Fcγ-specific antibodies (Jackson ImmunoResearch) for 1 hour at RT, followed by a ready-to-use solution of TMB substrate (Sigma) for colorimetric detection.

In assay [4] the target is T3, C1s-cleaved glycosylated recombinant human C2 (human, UniProt P06681 21-243; P06681 244-752, N-linked glycans).
T3 construct: Cleavage at the Arg243-|-Lys244 bond as printed; also called C1s-cleaved recombinant human C2; C1s-cleaved C2; not shown: N-terminal his-tag
T3 sequence 1: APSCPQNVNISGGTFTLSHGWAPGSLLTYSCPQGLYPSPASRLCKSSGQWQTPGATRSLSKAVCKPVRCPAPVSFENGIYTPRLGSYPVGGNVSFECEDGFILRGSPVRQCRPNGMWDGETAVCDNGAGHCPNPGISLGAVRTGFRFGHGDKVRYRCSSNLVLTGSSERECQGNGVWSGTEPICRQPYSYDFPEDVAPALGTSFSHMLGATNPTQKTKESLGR
T3 sequence 2: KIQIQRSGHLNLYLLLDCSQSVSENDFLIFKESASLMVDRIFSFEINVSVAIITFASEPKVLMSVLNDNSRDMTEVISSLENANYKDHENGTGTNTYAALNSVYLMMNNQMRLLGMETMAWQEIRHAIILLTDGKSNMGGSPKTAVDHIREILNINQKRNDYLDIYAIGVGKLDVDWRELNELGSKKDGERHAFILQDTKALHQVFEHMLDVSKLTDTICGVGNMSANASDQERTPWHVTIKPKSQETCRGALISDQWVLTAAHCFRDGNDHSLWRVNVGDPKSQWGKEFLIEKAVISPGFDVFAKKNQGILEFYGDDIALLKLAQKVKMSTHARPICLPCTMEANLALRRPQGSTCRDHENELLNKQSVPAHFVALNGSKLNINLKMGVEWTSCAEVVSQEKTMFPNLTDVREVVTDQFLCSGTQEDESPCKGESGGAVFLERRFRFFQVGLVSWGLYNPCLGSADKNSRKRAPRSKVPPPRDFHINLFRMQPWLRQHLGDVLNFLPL
Kind of assay: ELISA, C1s-cleaved C2 coated at 200 ng per well.

The target of assay [5] is T1, glycosylated recombinant human …. The assay can be described thus: ELISA, C2 coated at 25 or 200 ng per well. On the procedure:
as §1, with “Subsequently, plates were incubated with 0, 0.00002-20.0 (10-fold dilution steps in block buffer) μg/mL protein A-purified chimeric mouse-human IgG1κ and/or IgG4κ anti-C2-5F2.4, -13, -32, -35 and -60 for 1 hour at RT.” left out

B1: humanized IgG4/kappa anti-human complement C2-5F2.4 version VL3VH3 (antibody)
heavy: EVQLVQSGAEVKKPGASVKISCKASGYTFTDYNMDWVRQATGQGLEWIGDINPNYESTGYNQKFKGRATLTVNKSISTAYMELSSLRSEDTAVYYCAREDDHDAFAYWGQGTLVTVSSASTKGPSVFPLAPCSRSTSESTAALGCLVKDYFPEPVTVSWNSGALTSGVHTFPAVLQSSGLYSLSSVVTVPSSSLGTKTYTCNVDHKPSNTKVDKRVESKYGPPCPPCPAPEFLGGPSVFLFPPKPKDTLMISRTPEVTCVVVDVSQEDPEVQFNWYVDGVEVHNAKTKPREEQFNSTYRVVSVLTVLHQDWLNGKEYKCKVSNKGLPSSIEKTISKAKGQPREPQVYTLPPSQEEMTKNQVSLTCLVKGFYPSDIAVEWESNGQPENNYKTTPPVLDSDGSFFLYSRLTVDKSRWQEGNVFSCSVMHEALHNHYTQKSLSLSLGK
light: DNVLTQSPDSLAVSLGERATISCRASKSVRTSGYNYMHWYQQKPGQPPKLLIYLASNLKSGVPDRFSGSGSGTDFTLTISSLQAEDAATYYCQHSRELPYTFGQGTKLEIKRTVAAPSVFIFPPSDEQLKSGTASVVCLLNNFYPREAKVQWKVDNALQSGNSQESVTEQDSKDSTYSLSSTLTLSKADYEKHKVYACEVTHQGLSSPVTKSFNRGEC
notes: Stabilized human IgG4, κ; expressed with the FreeStyle 293 system
Turning to B1, the binding result in assay [1] was “binds”.

B2: humanized IgG4/kappa anti-human complement C2-5F2.4 version VL4VH3 (antibody)
heavy: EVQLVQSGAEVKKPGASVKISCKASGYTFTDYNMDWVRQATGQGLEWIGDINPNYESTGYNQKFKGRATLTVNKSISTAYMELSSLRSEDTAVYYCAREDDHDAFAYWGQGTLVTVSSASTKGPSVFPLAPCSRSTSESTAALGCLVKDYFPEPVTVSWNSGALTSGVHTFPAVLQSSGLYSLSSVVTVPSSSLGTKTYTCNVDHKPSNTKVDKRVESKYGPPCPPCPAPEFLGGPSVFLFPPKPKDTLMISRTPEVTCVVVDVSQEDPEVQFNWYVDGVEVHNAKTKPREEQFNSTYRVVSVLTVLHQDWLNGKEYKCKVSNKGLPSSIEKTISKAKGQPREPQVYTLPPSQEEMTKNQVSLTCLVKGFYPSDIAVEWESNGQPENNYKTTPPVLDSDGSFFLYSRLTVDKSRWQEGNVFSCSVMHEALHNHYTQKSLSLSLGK
light: DNVLTQSPDSLAVSLGERATINCRASKSVRTSGYNYMHWYQQKPGQPPKLLIYLASNLKSGVPDRFSGSGSGTDFTLTISSLQAEDAATYYCQHSRELPYTFGQGTKLEIKRTVAAPSVFIFPPSDEQLKSGTASVVCLLNNFYPREAKVQWKVDNALQSGNSQESVTEQDSKDSTYSLSSTLTLSKADYEKHKVYACEVTHQGLSSPVTKSFNRGEC
notes: as for B1
In the case of B2, in assay [1], the binding result is “binds”.

B3: humanized IgG4/kappa anti-human complement C2-5F2.4 version VL3VH4 (antibody)
heavy: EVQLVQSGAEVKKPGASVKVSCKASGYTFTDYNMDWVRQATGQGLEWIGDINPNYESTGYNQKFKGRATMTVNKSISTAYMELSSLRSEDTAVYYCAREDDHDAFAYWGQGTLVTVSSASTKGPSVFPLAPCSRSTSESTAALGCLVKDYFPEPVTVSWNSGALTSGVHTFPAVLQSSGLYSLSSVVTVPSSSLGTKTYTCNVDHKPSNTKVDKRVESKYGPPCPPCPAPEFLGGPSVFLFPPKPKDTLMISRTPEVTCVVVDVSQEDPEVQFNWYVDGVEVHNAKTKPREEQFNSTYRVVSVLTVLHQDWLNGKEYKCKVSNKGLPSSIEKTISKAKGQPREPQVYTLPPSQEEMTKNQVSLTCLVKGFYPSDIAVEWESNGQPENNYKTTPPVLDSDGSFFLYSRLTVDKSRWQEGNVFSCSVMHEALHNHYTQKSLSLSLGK
light: DNVLTQSPDSLAVSLGERATISCRASKSVRTSGYNYMHWYQQKPGQPPKLLIYLASNLKSGVPDRFSGSGSGTDFTLTISSLQAEDAATYYCQHSRELPYTFGQGTKLEIKRTVAAPSVFIFPPSDEQLKSGTASVVCLLNNFYPREAKVQWKVDNALQSGNSQESVTEQDSKDSTYSLSSTLTLSKADYEKHKVYACEVTHQGLSSPVTKSFNRGEC
notes: as for B1
Regarding B3, the binding result in assay [1] is recorded as “binds”.

B4: humanized IgG4/kappa anti-human complement C2-5F2.4 version VL4VH4 (antibody)
heavy: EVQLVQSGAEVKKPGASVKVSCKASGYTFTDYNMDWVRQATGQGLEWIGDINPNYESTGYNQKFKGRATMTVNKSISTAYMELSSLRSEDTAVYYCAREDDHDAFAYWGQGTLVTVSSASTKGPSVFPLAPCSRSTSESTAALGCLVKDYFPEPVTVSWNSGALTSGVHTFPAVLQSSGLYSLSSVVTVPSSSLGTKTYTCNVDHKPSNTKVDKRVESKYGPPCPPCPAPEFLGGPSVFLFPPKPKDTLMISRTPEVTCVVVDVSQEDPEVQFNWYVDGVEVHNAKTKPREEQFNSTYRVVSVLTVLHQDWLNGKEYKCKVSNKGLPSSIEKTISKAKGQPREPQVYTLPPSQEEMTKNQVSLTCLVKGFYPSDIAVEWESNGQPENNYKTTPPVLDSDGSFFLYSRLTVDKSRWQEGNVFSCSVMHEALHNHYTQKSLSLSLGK
light: DNVLTQSPDSLAVSLGERATINCRASKSVRTSGYNYMHWYQQKPGQPPKLLIYLASNLKSGVPDRFSGSGSGTDFTLTISSLQAEDAATYYCQHSRELPYTFGQGTKLEIKRTVAAPSVFIFPPSDEQLKSGTASVVCLLNNFYPREAKVQWKVDNALQSGNSQESVTEQDSKDSTYSLSSTLTLSKADYEKHKVYACEVTHQGLSSPVTKSFNRGEC
notes: as for B1
With B4, the binding result in assay [1] is reported as “binds”.

B5: mouse anti-human complement C2 antibody anti-C2-60 (mIgG1κ) (antibody, V domains shown)
VH: QVALKESGPGILQPSQTLSLTCSFSGFSLSTSNMGVGWIRQPSGKGLEWLAHIWWDDDKRYNPALKSRLTISKDTSSNQVFLKIASVDTADTATYFCARIGRPTMITTWYLDVWGAGTTVTVSS
VL: DIQMTQSPASLSVSVGETVTITCRASENIYSNLAWYQQKQGKSPQLLVYAATKLADGVPSRFSGSGSGTQYSLKINSLQSEDFGNYYCQHFWNTPYTFGGGTKLEIKR
notes: Hybridoma antibody, murine IgG1κ; also called antibody 60; hybridoma 60
With B5, the binding result in assay [2], in assay [3] and in assay [4] was “binds” throughout.

B6: chimeric mouse-human IgG4κ anti-human complement C2-60 (antibody, V domains shown)
VH: QVQLQQSGPGILQPSQTLSLTCSFSGFSLSTSNMGVGWIRQPSGKGLEWLAHIWWDDDKRYNPALKSRLTISKDTSSNQVFLKIASVDTADTATYFCARIGRPTMITTWYLDVWGAGTTVTVSS
VL: DIQMTQSPASLSVSVGETVTITCRASENIYSNLAWYQQKQGKSPQLLVYAATKLADGVPSRFSGSGSGTQYSLKINSLQSEDFGNYYCQHFWNTPYTFGGGTKLEIKR
notes: Stabilized human IgG4 / human κ, expressed in CHO-S cells; also called chimeric anti-C2-60; chuIgG4κ anti-C2-60
As for B6, the binding result in assay [5] is given as “binds”.

B7: mouse anti-human complement C2 antibody anti-C2-5F2.4 (mIgG2aκ) (antibody, V domains shown)
VH: EVQLQQSGAELVKPGASVKISCKASGYTFTDYNMDWVKQSHGKSLEWIGDINPNYESTGYNQKFKGKATLTVDKSSSTAYMELRSLTSEDTAVYYCAREDDHDAFAYWGQGTLVTVSA
VL: DNVLTQSPASVVVSLGQRATISCRASKSVRTSGYNYMHWYQQKPGQPPKLLIYLASNLKSGVPARFSGSGSGTDFTLNIHPVEEADAATYYCQHSRELPYTFGGGTKLEIKR
notes: also called mAb 5F2.4
Regarding B7, in assay [4], the binding result was “binds”.

B8: chimeric mouse-human IgG4κ anti-human complement C2-5F2.4 (antibody, V domains shown)
VH: EVQLQQSGAELVKPGASVKISCKASGYTFTDYNMDWVKQSHGKSLEWIGDINPNYESTGYNQKFKGKATLTVDKSSSTAYMELRSLTSEDTAVYYCAREDDHDAFAYWGQGTLVTVSA
VL: DIVLTQSPASVVVSLGQRATISCRASKSVRTSGYNYMHWYQQKPGQPPKLLIYLASNLKSGVPARFSGSGSGTDFTLNIHPVEEADAATYYCQHSRELPYTFGGGTKLEIKR
notes: Stabilized human IgG4 / human κ, expressed in CHO-S cells; also called chimeric anti-C2-5F2.4; chuIgG4κ anti-C2-5F2.4
As to B8, in assay [5], the binding result was “binds”.
